Assay results from paper PMC12201654, “Circovirus Rep evades immune restriction by disrupting cGAS oligomerization and phase separation” (PLOS Pathogens, 2025).

How the values were obtained:
[1] = target: the molecule itself; assay: cross-linking; recombinant pcGAS (5 ug), bound to ISD45 dsDNA, alone or with recombinant Rep proteins (5, 10, 15 ug) in cGAMP synthesis buffer (20 mM HEPES pH 7.5, 5 mM MgCl2, 2 mM ATP, 2 mM GTP), 25°C 15 min, then DSS 0.5 mM for 10 min; non-reducing loading buffer, immunoblot
pcGAS full length = target: T1, pcGAS full length (pig (porcine), UniProt I3LM39 1-495); assay: MST; Pull-down: IP lysis buffer 4 h at 4 C (lysates) or NP-40 buffer 6 h at 4 C (recombinant), biotin-HSV60 40 ug/mL; MST buffer not given; phase separation 50-300 mM NaCl; conditions: protein: recombinant; label: Cy5; blunt
T1 sequence: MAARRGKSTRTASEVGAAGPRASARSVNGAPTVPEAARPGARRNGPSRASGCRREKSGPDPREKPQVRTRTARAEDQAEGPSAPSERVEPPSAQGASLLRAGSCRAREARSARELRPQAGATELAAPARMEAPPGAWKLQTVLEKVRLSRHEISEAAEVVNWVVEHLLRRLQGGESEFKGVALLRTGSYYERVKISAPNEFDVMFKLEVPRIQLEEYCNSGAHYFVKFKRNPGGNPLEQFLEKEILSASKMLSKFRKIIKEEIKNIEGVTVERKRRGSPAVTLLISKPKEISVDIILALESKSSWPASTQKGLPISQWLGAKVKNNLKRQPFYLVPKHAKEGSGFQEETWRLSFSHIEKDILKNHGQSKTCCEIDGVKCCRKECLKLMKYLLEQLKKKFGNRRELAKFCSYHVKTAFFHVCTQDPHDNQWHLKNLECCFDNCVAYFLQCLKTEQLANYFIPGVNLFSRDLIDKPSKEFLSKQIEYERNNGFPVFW

PCV2a Rep = target: T2, PCV2a Rep (Porcine circovirus 2a, UniProt Q77Q74 1-314); assay: as above; conditions: protein: recombinant; tags: C-terminal Myc; His6-SUMO removed per Methods; label: Cy5; blunt
T2 sequence: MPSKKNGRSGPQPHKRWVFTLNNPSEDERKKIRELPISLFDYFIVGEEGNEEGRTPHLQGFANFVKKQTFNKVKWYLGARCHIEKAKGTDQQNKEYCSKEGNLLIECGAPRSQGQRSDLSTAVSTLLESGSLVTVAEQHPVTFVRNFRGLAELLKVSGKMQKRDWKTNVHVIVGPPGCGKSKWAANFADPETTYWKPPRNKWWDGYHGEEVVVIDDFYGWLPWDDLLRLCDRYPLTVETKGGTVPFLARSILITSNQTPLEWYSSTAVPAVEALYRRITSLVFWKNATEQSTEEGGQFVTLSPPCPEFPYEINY

SUMO-PCV3 Rep-Myc = SUMO-PCV3 Rep-Myc (Porcine circovirus 3, UniProt A0ACM8RHE8 1-296); assay: pull-down; Pull-down: IP lysis buffer 4 h at 4 C (lysates) or NP-40 buffer 6 h at 4 C (recombinant), biotin-HSV60 40 ug/mL; MST buffer not given; phase separation 50-300 mM NaCl; conditions: protein: recombinant; tags: His6-SUMO, C-terminal Myc; label: 5'-biotin; blunt
SUMO-PCV4 Rep-Myc = target: T3, SUMO-PCV4 Rep-Myc (Porcine circovirus 4, UniProt A0A7M4CFI7 1-296); assay: as above; conditions: protein: recombinant; tags: His6-SUMO, C-terminal Myc; label: 5'-biotin; blunt
T3 sequence: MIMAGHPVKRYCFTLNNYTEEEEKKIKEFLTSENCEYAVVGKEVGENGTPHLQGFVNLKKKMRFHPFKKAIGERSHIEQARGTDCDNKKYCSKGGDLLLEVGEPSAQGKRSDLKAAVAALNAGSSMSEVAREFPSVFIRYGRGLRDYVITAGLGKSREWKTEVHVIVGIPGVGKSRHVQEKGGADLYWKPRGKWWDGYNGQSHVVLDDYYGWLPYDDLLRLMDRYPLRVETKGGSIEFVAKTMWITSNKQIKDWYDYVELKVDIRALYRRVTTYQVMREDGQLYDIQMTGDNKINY

B1: porcine cGAS (pcGAS), recombinant full-length protein (natural protein)
chain: T1 sequence
notes: cyclic GMP-AMP synthase (cGAS), porcine, full length; identifier not given; also called porcine cyclic GMP-AMP synthase; pcGAS full length; source: recombinant protein, stored in our laboratory
B1: binds [1].

B2: Cy5-HSV60 (dsDNA)
DNA 1: TAAGACACGATGCGATAAAATCTGTTTGTAAAATTTATTAAGGGTACAAATTGCCCTAGC
DNA 2: GCTAGGGCAATTTGTACCCTTAATAAATTTTACAAACAGATTTTATCGCATCGTGTCTTA
For B2, the Kd (pcGAS full length) was 0.68 µM and the Kd (PCV2a Rep) was 11.1 µM.

B3: biotin-HSV60 (dsDNA)
DNA 1: B2 DNA 1
DNA 2: B2 DNA 2
B3: binds (SUMO-PCV3 Rep-Myc); binds (SUMO-PCV4 Rep-Myc).
